The results in this text go back to article PMC12485133.

The target in assay [1] is N-myristoylated human Arf1 bound to GTPγS, anchored on nanodiscs (myrArf1·GTPγS) (human) (UniProt P84077).
Assay [2] has the same target. In words: not stated; binding of PH variants and Arf variants compared with wild type (Fig. SI8 and Table SI1); the method is not given.

Chain of N-myristoylated human Arf1 bound to GTPγS, anchored on nanodiscs (myrArf1·GTPγS) (human) (P84077 whole entry): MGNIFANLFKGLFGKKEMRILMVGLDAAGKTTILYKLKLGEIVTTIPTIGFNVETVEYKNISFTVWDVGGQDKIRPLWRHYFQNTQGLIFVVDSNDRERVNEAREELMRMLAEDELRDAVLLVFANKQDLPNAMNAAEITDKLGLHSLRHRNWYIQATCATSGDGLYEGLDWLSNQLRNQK

Regarding “ASAP1 PH domain Lys391Ala (from UniProt Q9QWY8 325-451) (domain or fragment)”, the fold decrease in GAP activity compared with wild type (C50 of PZA, Fig. 7C) in assay [1] was 100 fold. The same substance yielded a fold reduction of binding against wild type in assay [2] of 2 fold.
